Laboratory results taken from the supplement of paper PMC5998384.

Experiments:
HeLa Kyoto [1] = experiment: melting temperature (median over replicates), in situ; higher = more thermally stable
HeLa Kyoto [2] = experiment: solubility change mitosis vs G1/S (difference of NP-40 vs SDS log2 ratios) (log2 ratio difference); higher = more soluble in mitosis
HeLa Kyoto [3] = experiment: solubility in G1/S (NP-40 vs SDS abundance) (log2 ratio); higher = more soluble; conditions: cell cycle stage: G1/S
HeLa Kyoto [4] = experiment: thermal stability score vs G1/S (z-score of summed log2 fold changes over temperatures); higher = more thermally stable than in G1/S
[5] = cell cycle stage: early G1 (4.5 h after nocodazole release)
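For melting temperature (median over replicates), in situ in this document: HeLa Kyoto cells synchronized by double thymidine or nocodazole block, proteins quantified by TMT10plex mass spectrometry, three independent biological replicates.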
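For solubility change mitosis vs G1/S (difference of NP-40 vs SDS log2 ratios) in this document: synchronized HeLa Kyoto cells (double thymidine block for G1/S, nocodazole release for mitosis), protein amounts in NP-40 versus SDS lysates quantified by mass spectrometry, three biological replicates.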
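For solubility in G1/S (NP-40 vs SDS abundance) in this document: HeLa Kyoto cells arrested at G1/S by double thymidine block, proteins quantified by TMT10plex mass spectrometry in mild NP-40 versus SDS extracts, three biological replicates.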
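For thermal stability score vs G1/S (z-score of summed log2 fold changes over temperatures) in this document: synchronized HeLa Kyoto cells, proteins quantified by TMT10plex mass spectrometry, three biological replicates, mitosis taken 0.5 h after nocodazole release, G1/S directly after double thymidine block.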

| Sequence | melting temperature (HeLa Kyoto [1]; cell cycle stage: G1/S) [°C] | melting temperature (HeLa Kyoto [1]; cell cycle stage: mitosis) [°C] | solubility change mitosis (log2) (HeLa Kyoto [2]) | solubility in G1/S (log2) (HeLa Kyoto [3]) | thermal stability score (HeLa Kyoto [4]; [5]) | thermal stability score (HeLa Kyoto [4]; cell cycle stage: mitosis) |
| --- | --- | --- | --- | --- | --- | --- |
| MATEIGSPPRFFHMPRFQHQAPRQLFYKRPDFAQQQAMQQLTFDGKRMRKAVNRKTIDYNPSVIKYLENRIWQRDQRDMRAIQPDAGYYNDLVPPIGMLNNPMNAVTTKFVRTSTNKVKCPVFVVRWTPEGRRLVTGASSGEFTLWNGLTFNFETILQAHDSPVRAMTWSHNDMWMLTADHGGYVKYWQSNMNNVKMFQAHKEAIREASFSPTDNKFATCSDDGTVRIWDFLRCHEERILRGHGADVKCVDWHPTKGLVVSGSKDSQQPIKFWDPKTGQSLATLHAHKNTVMEVKLNLNGNWLLTASRDHLCKLFDIRNLKEELQVFRGHKKEATAVAWHPVHEGLFASGGSDGSLLFWHVGVEKEVGGMEMAHEGMIWSLAWHPLGHILCSGSNDHTSKFWTRNRPGDKMRDRYNLNLLPGMSEDGVEYDDLEPNSLAVIPGMGIPEQLKLAMEQEQMGKDESNEIEMTIPGLDWGMEEVMQKDQKKVPQKKVPYAKPIPAQFQQAWMQNKVPIPAPNEVLNDRKEDIKLEEKKKTQAEIEQEMATLQYTNPQLLEQLKIERLAQKQVEQIQPPPSSGTPLLGPQPFPGQGPMSQIPQGFQQPHPSQQMPMNMAQMGPPGPQGQFRPPGPQGQMGPQGPPLHQGGGGPQGFMGPQGPQGPPQGLPRPQDMHGPQGMQRHPGPHGPLGPQGPPGPQGSSGPQGHMGPQGPPGPQGHIGPQGPPGPQGHLGPQGPPGTQGMQGPPGPRGMQGPPHPHGIQGGPGSQGIQGPVSQGPLMGLNPRGMQGPPGPRENQGPAPQGMIMGHPPQEMRGPHPPGGLLGHGPQEMRGPQEIRGMQGPPPQGSMLGPPQELRGPPGSQSQQGPPQGSLGPPPQGGMQGPPGPQGQQNPARGPHPSQGPIPFQQQKTPLLGDGPRAPFNQEGQSTGPPPLIPGLGQQGAQGRIPPLNPGQGPGPNKGDSRGPPNHHMGPMSERRHEQSGGPEHGPERGPFRGGQDCRGPPDRRGPHPDFPDDFSRPDDFHPDKRFGHRLREFEGRGGPLPQEEKWRRGGPGPPFPPDHREFSEGDGRGAARGPPGAWEGRRPGDERFPRDPEDPRFRGRREESFRRGAPPRHEGRAPPRGRDGFPGPEDFGPEENFDASEEAARGRDLRGRGRGTPRGGRKGLLPTPDEFPRFEGGRKPDSWDGNREPGPGHEHFRDTPRPDHPPHDGHSPASRERSSSLQGMDMASLPPRKRPWHDGPGTSEHREMEAPGGPSEDRGGKGRGGPGPAQRVPKSGRSSSLDGEHHDGYHRDEPFGGPPGSGTPSRGGRSGSNWGRGSNMNSGPPRRGASRGGGRGR [WDR33] | 49.3 | 49.8 | 0.257 | -0.421 | 0.933 | 1.06 |
| MATELEYESVLCVKPDVSVYRIPPRASNRGYRASDWKLDQPDWTGRLRITSKGKTAYIKLEDKVSGELFAQAPVEQYPGIAVETVTDSSRYFVIRIQDGTGRSAFIGIGFTDRGDAFDFNVSLQDHFKWVKQESEISKESQEMDARPKLDLGFKEGQTIKLCIGNITNKKGGASKPRTARGGGLSLLPPPPGGKVTIPPPSSSVAISNHVTPPPIPKSNHGGSDADILLDLDSPAPVTTPAPTPVSVSNDLWGDFSTASSSVPNQAPQPSNWVQF [NECAP1] | 51.5 | 52.4 | -0.274 | 0.521 | 0.202 | 0.108 |
| MATERSRSAMDSPVPASMFAPEPSSPGAARAAAAAARLHGGFDSDCSEDGEALNGEPELDLTSKLVLVSPTSEQYDSLLRQMWERMDEGCGETIYVIGQGSDGTEYGLSEADMEASYATVKSMAEQIEADVILLRERQEAGGRVRDYLVRKRVGDNDFLEVRVAVVGNVDAGKSTLLGVLTHGELDNGRGFARQKLFRHKHEIESGRTSSVGNDILGFDSEGNVVNKPDSHGGSLEWTKICEKSTKVITFIDLAGHEKYLKTTVFGMTGHLPDFCMLMVGSNAGIVGMTKEHLGLALALNVPVFVVVTKIDMCPANILQETLKLLQRLLKSPGCRKIPVLVQSKDDVIVTASNFSSERMCPIFQISNVTGENLDLLKMFLNLLSPRTSYREEEPAEFQIDDTYSVPGVGTVVSGTTLRGLIKLNDTLLLGPDPLGNFLSIAVKSIHRKRMPVKEVRGGQTASFALKKIKRSSIRKGMVMVSPRLNPQASWEFEAEILVLHHPTTISPRYQAMVHCGSIRQTATILSMDKDCLRTGDKATVHFRFIKTPEYLHIDQRLVFREGRTKAVGTITKLLQTTNNSPMNSKPQQIKMQSTKKGPLTKRDEGGPSGGPAVGAPPPGDEASSVGAGQPAASSNLQPQPKPSSGGRRRGGQRHKVKSQGACVTPASGC [GTPBP1] | 51.1 | 50.7 | -0.0833 | 0.0683 | 1.01 | 0.553 |
| MATFISVQLKKTSEVDLAKPLVKFIQQTYPSGGEEQAQYCRAAEELSKLRRAAVGRPLDKHEGALETLLRYYDQICSIEPKFPFSENQICLTFTWKDAFDKGSLFGGSVKLALASLGYEKSCVLFNCAALASQIAAEQNLDNDEGLKIAAKHYQFASGAFLHIKETVLSALSREPTVDISPDTVGTLSLIMLAQAQEVFFLKATRDKMKDAIIAKLANQAADYFGDAFKQCQYKDTLPKEVFPVLAAKHCIMQANAEYHQSILAKQQKKFGEEIARLQHAAELIKTVASRYDEYVNVKDFSDKINRALAAAKKDNDFIYHDRVPDLKDLDPIGKATLVKSTPVNVPISQKFTDLFEKMVPVSVQQSLAAYNQRKADLVNRSIAQMREATTLANGVLASLNLPAAIEDVSGDTVPQSILTKSRSVIEQGGIQTVDQLIKELPELLQRNREILDESLRLLDEEEATDNDLRAKFKERWQRTPSNELYKPLRAEGTNFRTVLDKAVQADGQVKECYQSHRDTIVLLCKPEPELNAAIPSANPAKTMQGSEVVNVLKSLLSNLDEVKKEREGLENDLKSVNFDMTSKFLTALAQDGVINEEALSVTELDRVYGGLTTKVQESLKKQEGLLKNIQVSHQEFSKMKQSNNEANLREEVLKNLATAYDNFVELVANLKEGTKFYNELTEILVRFQNKCSDIVFARKTERDELLKDLQQSIAREPSAPSIPTPAYQSSPAGGHAPTPPTPAPRTMPPTKPQPPARPPPPVLPANRAPSATAPSPVGAGTAAPAPSQTPGSAPPPQAQGPPYPTYPGYPGYCQMPMPMGYNPYAYGQYNMPYPPVYHQSPGQAPYPGPQQPSYPFPQPPQQSYYPQQ [PDCD6IP] | 48.7 | 48.6 | -0.0427 | 0.366 | -2.03 | -1.7 |
| MATKARVMYDFAAEPGNNELTVNEGEIITITNPDVGGGWLEGRNIKGERGLVPTDYVEILPSDGKDQFSCGNSVADQAFLDSLSASTAQASSSAASNNHQVGSGNDPWSAWSASKSGNWESSEGWGAQPEGAGAQRNTNTPNNWDTAFGHPQAYQGPATGDDDDWDEDWDGPKSSSYFKDSESADAGGAQRGNSRASSSSMKIPLNKFPGFAKPGTEQYLLAKQLAKPKEKIPIIVGDYGPMWVYPTSTFDCVVADPRKGSKMYGLKSYIEYQLTPTNTNRSVNHRYKHFDWLYERLLVKFGSAIPIPSLPDKQVTGRFEEEFIKMRMERLQAWMTRMCRHPVISESEVFQQFLNFRDEKEWKTGKRKAERDELAGVMIFSTMEPEAPDLDLVEIEQKCEAVGKFTKAMDDGVKELLTVGQEHWKRCTGPLPKEYQKIGKALQSLATVFSSSGYQGETDLNDAITEAGKTYEEIASLVAEQPKKDLHFLMECNHEYKGFLGCFPDIIGTHKGAIEKVKESDKLVATSKITLQDKQNMVKRVSIMSYALQAEMNHFHSNRIYDYNSVIRLYLEQQVQFYETIAEKLRQALSRFPVM [SNX9] | 49.9 | 49.3 | -0.0298 | -0.0383 | -0.198 | 0.732 |
| MATRVEEAARGRGGGAEEATEAGRGGRRRSPRQKFEIGTMEEAGICGLGVKADMLCNSQSNDILQHQGSNCGGTSNKHSLEEDEGSDFITENRNLVSPAYCTQESREEIPGGEARTDPPDGQQDSECNRNKEKTLGKEVLLLMQALNTLSTPEEKLAALCKKYADLLEESRSVQKQMKILQKKQAQIVKEKVHLQSEHSKAILARSKLESLCRELQRHNKTLKEENMQQAREEEERRKEATAHFQITLNEIQAQLEQHDIHNAKLRQENIELGEKLKKLIEQYALREEHIDKVFKHKELQQQLVDAKLQQTTQLIKEADEKHQREREFLLKEATESRHKYEQMKQQEVQLKQQLSLYMDKFEEFQTTMAKSNELFTTFRQEMEKMTKKIKKLEKETIIWRTKWENNNKALLQMAEEKTVRDKEYKALQIKLERLEKLCRALQTERNELNEKVEVLKEQVSIKAAIKAANRDLATPVMQPCTALDSHKELNTSSKRALGAHLEAEPKSQRSAVQKPPSTGSAPAIESVD [TXLNG] | 52.5 | 52.5 | 0.0514 | 0.584 | -0.882 | -2.17 |
| MATSSMSKGCFVFKPNSKKRKISLPIEDYFNKGKNEPEDSKLRFETYQLIWQQMKSENERLQEELNKNLFDNLIEFLQKSHSGFQKNSRDLGGQIKLREIPTAALVLGVNVTDHDLTFGSLTEALQNNVTPYVVSLQAKDCPDMKHFLQKLISQLMDCCVDIKSKEEESVHVTQRKTHYSMDSLSSWYMTVTQKTDPKMLSKKRTTSSQWQSPPVVVILKDMESFATKVLQDFIIISSQHLHEFPLILIFGIATSPIIIHRLLPHAVSSLLCIELFQSLSCKEHLTTVLDKLLLTTQFPFKINEKVLQVLTNIFLYHDFSVQNFIKGLQLSLLEHFYSQPLSVLCCNLPEAKRRINFLSNNQCENIRRLPSFRRYVEKQASEKQVALLTNERYLKEETQLLLENLHVYHMNYFLVLRCLHKFTSSLPKYPLGRQIRELYCTCLEKNIWDSEEYASVLQLLRMLAKDELMTILEKCFKVFKSYCENHLGSTAKRIEEFLAQFQSLDETKEEEDASGSQPKGLQKTDLYHLQKSLLEMKELRRSKKQTKFEVLRENVVNFIDCLVREYLLPPETQPLHEVVYFSAAHALREHLNAAPRIALHTALNNPYYYLKNEALKSEEGCIPNIAPDICIAYKLHLECSRLINLVDWSEAFATVVTAAEKMDANSATSEEMNEIIHARFIRAVSELELLGFIKPTKQKTDHVARLTWGGC [ORC3] | 48 | 48.7 | -0.145 | -0.303 | 1.65 | 2.89 |
| MAVARLAAVAAWVPCRSWGWAAVPFGPHRGLSVLLARIPQRAPRWLPACRQKTSLSFLNRPDLPNLAYKKLKGKSPGIIFIPGYLSYMNGTKALAIEEFCKSLGHACIRFDYSGVGSSDGNSEESTLGKWRKDVLSIIDDLADGPQILVGSSLGGWLMLHAAIARPEKVVALIGVATAADTLVTKFNQLPVELKKEVEMKGVWSMPSKYSEEGVYNVQYSFIKEAEHHCLLHSPIPVNCPIRLLHGMKDDIVPWHTSMQVADRVLSTDVDVILRKHSDHRMREKADIQLLVYTIDDLIDKLSTIVN [ABHD10] | 57.4 | 57.6 | -0.147 | 0.191 | 1.29 | -0.803 |
| MAVFADLDLRAGSDLKALRGLVETAAHLGYSVVAINHIVDFKEKKQEIEKPVAVSELFTTLPIVQGKSRPIKILTRLTIIVSDPSHCNVLRATSSRARLYDVVAVFPKTEKLFHIACTHLDVDLVCITVTEKLPFYFKRPPINVAIDRGLAFELVYSPAIKDSTMRRYTISSALNLMQICKGKNVIISSAAERPLEIRGPYDVANLGLLFGLSESDAKAAVSTNCRAALLHGETRKTAFGIISTVKKPRPSEGDEDCLPASKKAKCEG [RPP30] | 55.3 | 56.1 | -0.0188 | -0.0469 | -0.0475 | -1.92 |
